Test results reported in patent US12083109B2, “Neurokinin antagonists and uses thereof” (California Institute of Technology, priority 2017, dated 2024).
“Also recorded” adds a separate entry of the source.

B1: shRNA-1: small hairpin RNA for mouse Tac2 gene (SEQ ID NO: 9, 10), expressed from AAV5-H1-shRNA-CMV-zsGreen (nucleic acid)
chain 1: CCGACGTGGTTGAAGAGAACACCGCTTCCTGTCACGGTGTTCTCTTCAACCACGTCTTTTTT
chain 2: AAAAAAGACGTGGTTGAAGAGAACACCGTGACAGGAAGCGGTGTTCTCTTCAACCACGTCGG
B2: shRNA-2: small hairpin RNA for mouse Tac2 gene (SEQ ID NO: 11, 12), expressed from AAV5-H1-shRNA-CMV-zsGreen (nucleic acid)
chain 1: CCGCCTCAACCCCATAGCAATTAGCTTCCTGTCACTAATTGCTATGGGGTTGAGGCTTTTTT
chain 2: AAAAAAGCCTCAACCCCATAGCAATTAGTGACAGGAAGCTAATTGCTATGGGGTTGAGGCGG

System: Tac2 mRNA
Experiment: Tac2 mRNA knockdown by FISH and qRT-PCR in brain of shRNA mice
Type: in vivo, mouse
Conditions: for knockdown of Tac2 mRNA (efficacy of shRNA): FISH and qRT-PCR; for Tac2 mRNA in CeA / Tac2 mRNA in DMH / Tac2 mRNA in dBNSTa: FISH fluorescence / qRT-PCR vs luciferase shRNA control
Description: Fluorescent in situ hybridization (FISH) was carried out according to the protocol described in (Thompson et al., 2008; incorporated by reference in its entirety) with modifications. Briefly, mice were transcardially perfused with 1×PBS followed by 4% paraformaldehyde/PBS (PFA) in 1×PBS. Brains were fixed in 4% PFA for 3-4 hours at 4° C., and cryoprotected overnight in 15% sucrose at 4° C. Brains were embedded in OCT Compound (Fisher Scientific) and cryosectioned at 30 μm thickness and mounted on Superfrost Plus slides (Fisher Scientific). Sections were fixed in 4% PFA for 30 minutes, acetylated with 0.25% acetic anhydride in 0.1 M triethanolamine for 10 minutes, dehydrated with increasing concentrations of EtOH (50, 70, 95 and 100%), gently treated with proteinase K ([…] in 0.01M Tris-HCl pH 7.4 and 0.001M EDTA) for 10 minutes, and fixed in 4% PFA for 20 minutes. All procedures were performed at room temperature (RT). The hybridization buffer contained 50% deionized formamide, 3× standard saline citrate (SSC), 0.12 M PB (pH 7.4), 10% dextran sulfate, 0.12 mg/ml yeast tRNA, 0.1 mg/mL calf thymus DNA, and 1× Dehardt solution. The sections were prehybridized at 63° C. in hybridization buffer for 30 minutes and then hybridized with the digoxigenin-labeled Tac2 RNA probe (300 ng/ml) in hybridization buffer at 63° C. for 16 hours. After hybridization, the sections were washed with 5×SSC for 10 minutes, 4×SSC/50% formamide for 20 minutes, 2×SSC/50% formamide for 30 minutes, and 0.1×SSC for 20 minutes twice each at 61° C. The sections were blocked with 4% sheep serum in TNT buffer (Tris-HCl pH7.5, 0.15 M NaCl and 0.00075% Tween 20) for 30 minutes and TNB Blocking buffer (TSA blocking reagent, PerkinElmer, Waltham, MA) for 30 minutes at RT. The sections were incubated overnight at RT with anti-digoxigenin-POD antibody (1:600, Roche Diagnostics) in TNB buffer. The sections were washed with TNT buffer and tyramide-biotin signal amplification was performed using the TSA Plus Biotin Kit (PerkinElmer). Signals were visualized after 1 hour incubation with Alexa Fluor 594 Streptavidin (Jackson ImmunoResearch) or Alexa Fluor 488 Streptavidin (Invitrogen) at RT. Sections were counterstained with DAPI ([…] in PBS), washed with 1×PBS, and coverslipped using Fluoro-Gel with Tris Buffer (Electron Microscopy Sciences). Tissue images of entire coronal brain sections were taken using an Olympus VS120-S6-W slide-scanner and cells positive for the probe were counted. Cell Counting
Following confocal or slide-scanner imaging, quantification of labeled cells was performed using ImageJ and Metamorph. Cells were counted by an observer blind to experimental conditions. Brain images were converted to greyscale (16-bit) in ImageJ and adjusted using automatic thresholding and watershed separation. Cells were either counted automatically using ImageJ's particle analysis algorithm (random sections were counted manually to cross-check that automated scoring was consistent with manual human scoring); otherwise, cells were counted manually using MetaMorph. Cells that were not entirely contained within a given region of interest (ROI) were excluded from analyses. Relative fluorescent intensities were measured automatically using MetaMorph for a given ROI. Raw cell counts within an ROI were divided by the size of the ROI (mm^2) to produce the number of positively labeled cells/mm^2.
Group housed or isolated (30 minutes, 24 hours, 2 weeks) mice were decapitated and brains were quickly removed and placed in RNA Later (Qiagen) at 4° C. Tissue from dBNSTa, DMH, CeA, ACC, and dHPC was microdissected and placed in RNA Later. Tissue was then homogenized and RNA purified using an RNAeasy Plus Mini Kit (Qiagen). 150ng of total RNA/region/condition was then incubated with 3 μl of Turbo DNase, 1 μl of Murine RNase Inhibitor in 1× Turbo DNase buffer for 15 minutes at 37° C. to remove any contaminating genomic DNA. […]

Row | Molecule | knockdown of Tac2 mRNA (efficacy of shRNA) | Tac2 mRNA in CeA | Tac2 mRNA in DMH | Tac2 mRNA in dBNSTa
1 | B1 | proved effective | appeared reduced | reduced | reduced
2 | B2 | proved effective; also recorded: strongest reductions; also recorded: stronger knockdown | appeared reduced | reduced | reduced
